Assay results from publication PMC11234873.

B1: GR20 dipeptide repeats (peptide)
chain: GRGRGRGRGRGRGRGRGRGRGRGRGRGRGRGRGRGRGRGR
modifications: not checked
B2: PR20 dipeptide repeats (peptide)
chain: PRPRPRPRPRPRPRPRPRPRPRPRPRPRPRPRPRPRPRPR
modifications: not checked

Target: full-length human Hsp90α (human), P07900
Experiment: BLI

Binder	Kd [nM]
B1	8.97
B2	9.08
